Read-outs that look alike come from different tables or passages of the source.
Assays:
[1] = molecular target: [Lys]plasminogen (human); test: steady-state kinetics of Pg activation
[2] = molecular target: [Lys]plasminogen (human); test: steady-state kinetics of Pg activation; remark: listed apart in the source
[3] = molecular target: [5F]FFR-[Lys]Pg ([Lys]plasminogen inactivated with ATA-FFR-CH2Cl and labeled with 5-(iodoacetamido)fluorescein) (human); test: other fluorescence titration
[4] = molecular target: [5F]FFR-[Lys]Pg ([Lys]plasminogen inactivated with ATA-FFR-CH2Cl and labeled with 5-(iodoacetamido)fluorescein) (human); test: other fluorescence titration; remark: listed apart in the source

Chain of [Lys]plasminogen (human) (P00747 whole entry): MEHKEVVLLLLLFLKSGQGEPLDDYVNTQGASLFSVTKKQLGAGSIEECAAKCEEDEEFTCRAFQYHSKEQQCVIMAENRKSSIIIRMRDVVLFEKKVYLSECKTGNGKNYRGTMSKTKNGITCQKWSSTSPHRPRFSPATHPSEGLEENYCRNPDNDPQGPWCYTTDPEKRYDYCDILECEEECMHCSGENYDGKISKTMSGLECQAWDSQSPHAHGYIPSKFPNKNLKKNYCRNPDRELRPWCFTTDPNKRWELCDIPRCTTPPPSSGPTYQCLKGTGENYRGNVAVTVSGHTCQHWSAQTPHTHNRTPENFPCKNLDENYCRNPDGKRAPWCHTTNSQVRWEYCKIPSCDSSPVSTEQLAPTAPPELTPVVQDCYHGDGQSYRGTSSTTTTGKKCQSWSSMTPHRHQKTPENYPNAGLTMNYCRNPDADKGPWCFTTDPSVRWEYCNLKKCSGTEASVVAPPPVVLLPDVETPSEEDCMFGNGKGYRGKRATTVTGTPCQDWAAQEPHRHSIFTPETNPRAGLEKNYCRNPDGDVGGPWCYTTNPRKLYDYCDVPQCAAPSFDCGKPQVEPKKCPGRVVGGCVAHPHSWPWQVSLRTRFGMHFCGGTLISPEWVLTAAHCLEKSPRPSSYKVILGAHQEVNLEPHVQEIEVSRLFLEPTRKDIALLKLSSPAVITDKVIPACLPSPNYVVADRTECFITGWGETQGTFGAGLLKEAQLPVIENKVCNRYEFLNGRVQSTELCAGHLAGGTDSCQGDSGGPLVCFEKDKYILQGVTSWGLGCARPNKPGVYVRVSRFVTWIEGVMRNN
Chain of [5F]FFR-[Lys]Pg ([Lys]plasminogen inactivated with ATA-FFR-CH2Cl and labeled with 5-(iodoacetamido)fluorescein) (human) (P00747 whole entry): as above

Substance | Kd [1] [nM] | Kd [2] [nM] | Kd [3] [nM] | Kd [4] [nM]
recombinant wild-type streptokinase (from UniProt P00779 27-440) (natural protein) | 33 | 1.6 |  | 
Native streptokinase (from UniProt P00779 27-440) (natural protein) |  | 1.6 |  | 
SKΔ(R253-L260) (from UniProt P00779 27-440) (natural protein) | 78 |  |  | 
SKΔ(R253-L260)ΔK414-His6 (TEVp-cleaved His6-(TEVp cleavage site)-SKΔ(R253-L260)ΔK414-His6) (from UniProt P00779 27-440) (natural protein) |  | 28 | 820 | 470
wtSK-His6 (TEVp-cleaved His6-wtSK-His6) (from UniProt P00779 27-440) (natural protein) | 32 |  | 290 | 240

From paper PMC3114107
